The record followed here is IntAct's records for PubMed 29039417.

B1: BBSome complex member BBS2 (Homo sapiens), Q9BXC9 (parent)
chain: MLLPVFTLKLRHKISPRMVAIGRYDGTHPCLAAATQTGKVFIHNPHTRNQHVSASRVFQSPLESDVSLLSINQAVSCLTAGVLNPELGYDALLVGTQTNLLAYDVYNNSDLFYREVADGANAIVLGTLGDISSPLAIIGGNCALQGFNHEGSDLFWTVTGDNVNSLALCDFDGDGKKELLVGSEDFDIRVFKEDEIVAEMTETEIVTSLCPMYGSRFGYALSNGTVGVYDKTSRYWRIKSKNHAMSIHAFDLNSDGVNELITGWSNGKVDARSDRTGEVIFKDNFSSAIAGVVEGDYRMDGHIQLICCSVDGEIRGYLPGTAEMRGNLMDTSAEQDLIRELSQKKQNLLLELRNYEENAKAELASPLNEADGHRGIIPANTRLHTTLSVSLGNETQTAHTELRISTSNDTIIRAVLIFAEGIFTGESHVVHPSIHNLSSSICIPIVPPKDVPVDLHLKAFVGYRSSTQFHVFESTRQLPRFSMYALTSLDPASEPISYVNFTIAERAQRVVVWLGQNFLLPEDTHIQNAPFQVCFTSLRNGGHLHIKIKLSGEITINTDDIDLAGDIIQSMASFFAIEDLQVEADFPVYFEELRKVLVKVDEYHSVHQKLSADMADHSNLIRSLLVGAEDARLMRDMKTMKSRYMELYDLNRDLLNGYKIRCNNHTELLGNLKAVNQAIQRAGRLRVGKPKNQVITACRDAIRSNNINTLFKIMRVGTASS
partner: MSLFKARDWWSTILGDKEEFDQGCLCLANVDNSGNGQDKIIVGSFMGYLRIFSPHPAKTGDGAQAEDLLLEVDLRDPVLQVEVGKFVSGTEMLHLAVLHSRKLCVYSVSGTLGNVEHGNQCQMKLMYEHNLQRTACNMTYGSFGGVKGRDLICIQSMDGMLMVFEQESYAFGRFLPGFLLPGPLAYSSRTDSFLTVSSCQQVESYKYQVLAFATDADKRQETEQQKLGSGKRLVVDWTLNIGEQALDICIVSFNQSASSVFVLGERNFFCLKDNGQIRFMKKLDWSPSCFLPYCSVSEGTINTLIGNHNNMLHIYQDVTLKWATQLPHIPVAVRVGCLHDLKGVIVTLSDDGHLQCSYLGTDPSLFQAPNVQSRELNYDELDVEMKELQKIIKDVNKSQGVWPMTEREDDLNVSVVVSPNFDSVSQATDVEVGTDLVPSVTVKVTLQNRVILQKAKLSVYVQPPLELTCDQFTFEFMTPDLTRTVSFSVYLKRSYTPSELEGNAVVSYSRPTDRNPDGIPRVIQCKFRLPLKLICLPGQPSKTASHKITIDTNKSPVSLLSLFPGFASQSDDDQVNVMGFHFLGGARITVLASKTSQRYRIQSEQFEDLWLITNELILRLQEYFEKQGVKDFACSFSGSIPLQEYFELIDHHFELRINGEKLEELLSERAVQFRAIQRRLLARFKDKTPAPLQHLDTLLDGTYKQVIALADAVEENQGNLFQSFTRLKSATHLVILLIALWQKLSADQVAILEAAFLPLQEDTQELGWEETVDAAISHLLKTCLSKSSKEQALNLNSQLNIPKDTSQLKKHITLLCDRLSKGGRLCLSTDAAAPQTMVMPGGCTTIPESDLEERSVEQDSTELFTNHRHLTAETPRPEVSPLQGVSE

Variants of B1 are the subject of the test. As to conditions: with pthb1_human BBS9, Q3SYG4.
Consider V499K, for which the “effect of a mutation on the interaction” value is reported as “with no effect”.
As for V499E, the “effect of a mutation on the interaction” value is listed as “with no effect”.
On to A682K, for which the “effect of a mutation on the interaction” value is on record as “with no effect”.
For L341E the value was “with no effect”; for G688A, “with no effect”; for E646K, “with no effect”.
For F418E the value was “with no effect”; for F418K, “with no effect”; for Q346E, “with no effect”.
Regarding F575K, the “effect of a mutation on the interaction” value was “with no effect”.
The same measure for Y648K: “with no effect”.
The same measure for G552E: “disrupting interaction strength”; for D630E: “with no effect”.
For V415E, the “effect of a mutation on the interaction” value is reported as “with no effect”.
As to V415A, the “effect of a mutation on the interaction” value was “with no effect”.
For K345E the value was “with no effect”; for L514E, “disrupting interaction strength”.
With L514K, the “effect of a mutation on the interaction” value was “disrupting interaction strength”.
Take V533A: the “effect of a mutation on the interaction” value was “with no effect”.
The same measure for R622E: “with no effect”; for S439A: “disrupting interaction strength”.
With D559K, the “effect of a mutation on the interaction” value is on record as “with no effect”.
With N706A, the “effect of a mutation on the interaction” value is “with no effect”.
A398V: the “effect of a mutation on the interaction” value is on record as “disrupting interaction strength”.
S611E: the “effect of a mutation on the interaction” value was “with no effect”.
Take L650E: the “effect of a mutation on the interaction” value is “with no effect”.
For I621K, the “effect of a mutation on the interaction” value was “with no effect”.
As to I546K, the “effect of a mutation on the interaction” value is given as “with no effect”.
On to N436K, for which the “effect of a mutation on the interaction” value is “with no effect”.
In the case of K641E, the “effect of a mutation on the interaction” value is reported as “with no effect”.
For D653A the value was “with no effect”.
As for F590E, the “effect of a mutation on the interaction” value is “with no effect”.
The same measure for D523K: “with no effect”.
For the variant V588E, the “effect of a mutation on the interaction” value is recorded as “with no effect”.
For Q581K the value was “with no effect”; for G392A, “with no effect”.
For the variant F423K, the “effect of a mutation on the interaction” value is on record as “with no effect”.
The same measure for H431R: “disrupting interaction strength”.
K549E: the “effect of a mutation on the interaction” value is recorded as “with no effect”.
On to I422K, for which the “effect of a mutation on the interaction” value is listed as “with no effect”.
The same measure for I422A: “with no effect”; for A628E: “with no effect”; for Y463A: “with no effect”.
Take E362Y: the “effect of a mutation on the interaction” value is “disrupting interaction strength”.
The same measure for V429E: “with no effect”; for D579E: “with no effect”; for A485E: “with no effect”.
For E473A, the “effect of a mutation on the interaction” value is “with no effect”.
With L367E, the “effect of a mutation on the interaction” value is “with no effect”.
As to D409A, the “effect of a mutation on the interaction” value is “with no effect”.
The same measure for K712A: “with no effect”; for E369K: “with no effect”.
For Q516E the value was “with no effect”; for F501K, “with no effect”; for R699E, “with no effect”.
Turning to L520K, the “effect of a mutation on the interaction” value was “with no effect”.
The same measure for S332A: “with no effect”; for N651E: “with no effect”.
The same measure for S482K: “disrupting interaction strength”; for S482E: “disrupting interaction strength”.
In the case of A615K, the “effect of a mutation on the interaction” value is “with no effect”.
Take H607A: the “effect of a mutation on the interaction” value is “with no effect”.
In the case of R374E, the “effect of a mutation on the interaction” value is “with no effect”.
As to Q396K, the “effect of a mutation on the interaction” value is listed as “with no effect”.
The same measure for I548E: “with no effect”; for I548K: “with no effect”; for E426K: “with no effect”.
As for E426A, the “effect of a mutation on the interaction” value is given as “with no effect”.
The same measure for L337E: “with no effect”.
The same measure for L387A: “with no effect”; for E583K: “with no effect”.
The same measure for R681A: “with no effect”; for T718E: “with no effect”.
Take T718K: the “effect of a mutation on the interaction” value is “with no effect”.
In the case of N528A, the “effect of a mutation on the interaction” value is given as “with no effect”.
The same measure for T558E: “with no effect”; for T558K: “with no effect”.
The same measure for I443A: “disrupting interaction strength”.
For the variant F469L, the “effect of a mutation on the interaction” value was “disrupting interaction strength”.
On to F469E, for which the “effect of a mutation on the interaction” value is “disrupting interaction strength”.
For I417A, the “effect of a mutation on the interaction” value is listed as “with no effect”.
For I702E the value was “with no effect”.
Turning to N663A, the “effect of a mutation on the interaction” value is reported as “with no effect”.
For I526A the value was “with no effect”; for P495A, “with no effect”.
As for M329E, the “effect of a mutation on the interaction” value is “with no effect”.
For F472A the value was “with no effect”.
